Experimental findings from patent US20200283478A1 (Genentech, published 2020) are described below.

Square brackets hold non-standard residues; d marks the D form. Ends that are not written are not given here. * marks the point of attachment. Trp(6-Br) = N[C@@H](Cc1c[nH]c2cc(Br)ccc12)C(=O)O; Trp(6-Cl) = N[C@@H](Cc1c[nH]c2cc(Cl)ccc12)C(=O)O; Trp(6-F) = N[C@@H](Cc1c[nH]c2cc(F)ccc12)C(=O)O; Trp(6-Me) = Cc1ccc2c(C[C@H](N)C(=O)O)c[nH]c2c1; hArg = N=C(N)NCCCC[C@H](N)C(=O)O; Pentanoyl = CCCCC(=O)*

B1: Compound 175 (peptide)
peptide: Pentanoyl-[Trp(6-Me)]NLVRIGLTR-NH2
SMILES: CCCCC(=O)N[C@@H](Cc1c[nH]c2cc(C)ccc12)C(=O)N[C@@H](CC(N)=O)C(=O)N[C@@H](CC(C)C)C(=O)N[C@H](C(=O)N[C@@H](CCCNC(=N)N)C(=O)N[C@H](C(=O)NCC(=O)N[C@@H](CC(C)C)C(=O)N[C@H](C(=O)N[C@@H](CCCNC(=N)N)C(N)=O)[C@@H](C)O)[C@@H](C)CC)C(C)C
B2: Compound 187 (peptide)
peptide: Pentanoyl-[Trp(6-Br)]NLVRIGLTR-NH2
SMILES: CCCCC(=O)N[C@@H](Cc1c[nH]c2cc(Br)ccc12)C(=O)N[C@@H](CC(N)=O)C(=O)N[C@@H](CC(C)C)C(=O)N[C@H](C(=O)N[C@@H](CCCNC(=N)N)C(=O)N[C@H](C(=O)NCC(=O)N[C@@H](CC(C)C)C(=O)N[C@H](C(=O)N[C@@H](CCCNC(=N)N)C(N)=O)[C@@H](C)O)[C@@H](C)CC)C(C)C
B3: Compound 191 (peptide)
peptide: Pentanoyl-WNLV[hArg]IGLLR-NH2
notes: also called n-BuC(O)-WNLV(homoR)IGLLR-NH2
B4: Compound 234 (peptide)
peptide: Pentanoyl-WNLV[hArg]IGLTR-NH2
SMILES: CCCCC(=O)N[C@@H](Cc1c[nH]c2ccccc12)C(=O)N[C@@H](CC(N)=O)C(=O)N[C@@H](CC(C)C)C(=O)N[C@H](C(=O)N[C@@H](CCCCNC(=N)N)C(=O)N[C@H](C(=O)NCC(=O)N[C@@H](CC(C)C)C(=O)N[C@H](C(=O)N[C@@H](CCCNC(=N)N)C(N)=O)[C@@H](C)O)[C@@H](C)CC)C(C)C
notes: also called n-BuC(O)-WNLV(homoR)IGLTR-NH2
B5: Compound 186 (peptide)
peptide: Pentanoyl-[Trp(6-Cl)]NLVRIGLTR-NH2
SMILES: CCCCC(=O)N[C@@H](Cc1c[nH]c2cc(Cl)ccc12)C(=O)N[C@@H](CC(N)=O)C(=O)N[C@@H](CC(C)C)C(=O)N[C@H](C(=O)N[C@@H](CCCNC(=N)N)C(=O)N[C@H](C(=O)NCC(=O)N[C@@H](CC(C)C)C(=O)N[C@H](C(=O)N[C@@H](CCCNC(=N)N)C(N)=O)[C@@H](C)O)[C@@H](C)CC)C(C)C
B6: Compound 174 (peptide)
peptide: Pentanoyl-[Trp(6-F)]NLVRIGLTR-NH2
SMILES: CCCCC(=O)N[C@@H](Cc1c[nH]c2cc(F)ccc12)C(=O)N[C@@H](CC(N)=O)C(=O)N[C@@H](CC(C)C)C(=O)N[C@H](C(=O)N[C@@H](CCCNC(=N)N)C(=O)N[C@H](C(=O)NCC(=O)N[C@@H](CC(C)C)C(=O)N[C@H](C(=O)N[C@@H](CCCNC(=N)N)C(N)=O)[C@@H](C)O)[C@@H](C)CC)C(C)C

T2 sequence (Q8NBP7 other isoform, or with tags, fused parts or gaps limits assumed): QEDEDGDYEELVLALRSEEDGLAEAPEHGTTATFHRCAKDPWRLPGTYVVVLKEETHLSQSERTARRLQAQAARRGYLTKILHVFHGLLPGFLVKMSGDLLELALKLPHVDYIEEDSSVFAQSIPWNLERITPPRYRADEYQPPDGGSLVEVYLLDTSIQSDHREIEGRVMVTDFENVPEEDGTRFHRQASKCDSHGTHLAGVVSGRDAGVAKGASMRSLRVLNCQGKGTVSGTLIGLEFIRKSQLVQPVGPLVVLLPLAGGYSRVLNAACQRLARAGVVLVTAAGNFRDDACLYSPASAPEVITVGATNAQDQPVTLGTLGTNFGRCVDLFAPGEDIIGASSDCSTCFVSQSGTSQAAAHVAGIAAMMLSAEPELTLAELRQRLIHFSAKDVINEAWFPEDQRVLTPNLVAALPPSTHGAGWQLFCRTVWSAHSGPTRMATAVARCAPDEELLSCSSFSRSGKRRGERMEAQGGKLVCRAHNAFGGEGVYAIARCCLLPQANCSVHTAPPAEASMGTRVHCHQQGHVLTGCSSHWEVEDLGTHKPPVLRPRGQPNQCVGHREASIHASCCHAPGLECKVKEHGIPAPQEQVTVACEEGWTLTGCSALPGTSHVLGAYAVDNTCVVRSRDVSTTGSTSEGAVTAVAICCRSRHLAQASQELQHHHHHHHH

For the first test, the target named is T1, His-tagged PCSK9Δhelix (human, UniProt Q8NBP7 31-152; Q8NBP7 168-692).
T1 construct: Construct M1-Q692 with engineered TEV site, cut by TEV protease; new N-terminus of the catalytic domain is S-A168; also called His-PCSK9Δhelix
T1 sequence (Q8NBP7 31-152, stated change not applied, chain 1 of 2): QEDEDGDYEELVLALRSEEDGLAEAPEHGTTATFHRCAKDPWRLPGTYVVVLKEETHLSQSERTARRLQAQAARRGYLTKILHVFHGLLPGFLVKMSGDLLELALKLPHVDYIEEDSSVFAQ
T1 sequence (Q8NBP7 other isoform, or with tags, fused parts or gaps mutant, chain 2 of 2): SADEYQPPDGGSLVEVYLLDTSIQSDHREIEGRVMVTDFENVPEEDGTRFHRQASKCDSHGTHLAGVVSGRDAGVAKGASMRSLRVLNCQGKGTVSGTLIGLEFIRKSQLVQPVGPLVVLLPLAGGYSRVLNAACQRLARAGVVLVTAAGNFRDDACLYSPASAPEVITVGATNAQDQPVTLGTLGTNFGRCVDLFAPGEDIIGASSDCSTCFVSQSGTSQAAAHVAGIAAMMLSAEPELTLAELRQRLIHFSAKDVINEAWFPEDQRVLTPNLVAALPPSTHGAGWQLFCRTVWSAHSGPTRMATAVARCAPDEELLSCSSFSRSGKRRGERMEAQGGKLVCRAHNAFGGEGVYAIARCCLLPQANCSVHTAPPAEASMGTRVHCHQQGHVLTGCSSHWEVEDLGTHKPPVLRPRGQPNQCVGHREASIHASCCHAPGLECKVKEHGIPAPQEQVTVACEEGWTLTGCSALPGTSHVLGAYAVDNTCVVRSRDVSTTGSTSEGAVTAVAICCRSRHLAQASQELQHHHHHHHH
Description: TR-FRET competition; His-PCSK9Δhelix, competitor Ab20.
Description: Signal generation in the PCSK9 binding assays was dependent upon the binding interaction to bring into close proximity the His-tag on the PCSK9 and the Fc-tag on the ligand. Anti-His-APC was bound to the His-tag, and anti-Fc-europium was bound to the Fc-tag.
Compounds were solubilized and dilutions were prepared in DMSO. […] The plate was centrifuged to mix the well contents and allowed to incubate for 30 min. […] The normalized TR-FRET ratios were plotted as a function of the compound concentrations, and the IC₅₀ values were determined using a 4-parameter logistic regression.
On to WNLVRIGLLR (also: further groups not given here, Structure printed only as a drawing) [Compound 132], for which the IC50 came out at 9 µM.

Regarding WNLVRIGLLR (also: further groups not given here, Structure printed only as a drawing) [Compound 149], the IC50 was 8.9 µM.

In turn, B1 came in with an IC50 of 39 µM.

In the case of B2, the IC50 is 36 µM.

Consider Ac-DLMPWNLKRIGLLR-NH2 [Compound 158], for which the IC50 amounted to 12 µM.

B3 had an IC50 of 1.3 µM.

Molecule B4 yielded an IC50 of 1.4 µM.

Pentanoyl-WNLV[hArg]IGLTR (also called n-BuC(O)-WNLV(homoR)IGLTR) [Compound 235] registered an IC50 of 2.7 µM.

Molecule WNLVRIGLLR (also: further groups not given here, Structure printed only as a drawing) [Compound 150] came in with an IC50 of 8.2 µM.

Ac-DLMPWNLVRIGLPR-NH2 [Compound 160] gave an IC50 of 19 µM.

Consider WNLVRIGLLR (also: further groups not given here, Structure printed only as a drawing) [Compound 133], for which the IC50 stood at 17 µM.

Turning to WNLVRIGLLR (also: further groups not given here, Structure printed only as a drawing) [Compound 134], the 50% inhibitory concentration (IC50) amounted to 4.2 µM.

In turn, WNLVRIGLLR (also: further groups not given here, Structure printed only as a drawing) [Compound 147] registered an IC50 of 0.41 µM.

On to B5, for which the IC50 worked out at 11 µM.

Take WNLVRIGLLR (also: further groups not given here, Structure printed only as a drawing) [Compound 145]: the IC50 turned out to be 2.2 µM.

Ac-MDSFPGWNLVRIGLLR-NH2 [Compound 153] had an IC50 of 50 µM.

Consider WNLVRIGLLR (also: further groups not given here, Structure printed only as a drawing) [Compound 143], for which the IC50 came out at 23 µM.

WNLVRIGLLR (also: further groups not given here, Structure printed only as a drawing) [Compound 135] registered an IC50 of 10 µM.

WNLVRIGLLR (also: further groups not given here, Structure printed only as a drawing) [Compound 130] displayed an IC50 of 8.6 µM.

WNLVRIGLLR (also: further groups not given here, Structure printed only as a drawing) [Compound 138] gave an IC50 of 4.9 µM.

In the case of WNLVRIGLLR (also: further groups not given here, Structure printed only as a drawing) [Compound 137], the IC50 was 6.7 µM.

For the molecule WNLVRIGLLR (also: further groups not given here, Structure printed only as a drawing) [Compound 144], the IC50 is 4 µM.

For the molecule B6, the IC50 stood at 6.2 µM.

WNLVRIGLLR (also: further groups not given here, Structure printed only as a drawing) [Compound 148] showed an IC50 of 11 µM.

Turning to WNLVRIGLLR (also: further groups not given here, Structure printed only as a drawing) [Compound 146], the IC50 was 1.7 µM.

Ac-SFAFPGWNLVRIGLLR-NH2 [Compound 154]: the IC50 is 50 µM.

Consider Ac-DSYPGWNLVRIGLLR-NH2 [Compound 155], for which the IC50 was 50 µM.

With Ac-ESYPGWNLVRIGLLR-NH2 [Compound 156], the IC50 amounted to 50 µM.

WNLVRIGLLR (also: further groups not given here, Structure printed only as a drawing) [Compound 139] came in with an IC50 of 19 µM.

WNLVRIGLLR (also: further groups not given here, Structure printed only as a drawing) [Compound 136] had an IC50 of 9 µM.

Molecule WNLVRIGLLR (also: further groups not given here, Structure printed only as a drawing) [Compound 131] registered an IC50 of 6.7 µM.

Molecule WNLVRIGLLR (also: further groups not given here, Structure printed only as a drawing) [Compound 140] yielded a half-maximal inhibitory concentration (IC50) of 26 µM.

Turning to WNLVRIGLLR (also: further groups not given here, Structure printed only as a drawing) [Compound 141], the IC50 worked out at 36 µM.

Molecule WNLVRIGLLR (also: further groups not given here, Structure printed only as a drawing) [Compound 151] displayed an IC50 of 2.5 µM.

Take Pentanoyl-WNLVRIGLLR [Compound 152]: the IC50 worked out at 14 µM.

Molecule WNLVRIGLLR (also: further groups not given here, Structure printed only as a drawing) [Compound 142] yielded an IC50 of 15 µM.

Another test concerns the target T2, His-tagged, full-length PCSK9 (human, UniProt Q8NBP7 31-692).
T2 construct: The secreted protein is autocleaved into a prodomain and a catalytic/Cys-rich chain that starts at S153; also called His-PCSK9
Description: TR-FRET competition; His-PCSK9, competitor EGF(A)-Fc.
WNLVRIGLLR (also: further groups not given here, Structure printed only as a drawing) [Compound 132] came in with an IC50 of at least 50 µM.

In the case of WNLVRIGLLR (also: further groups not given here, Structure printed only as a drawing) [Compound 149], the concentration for half-maximal inhibition (IC50) worked out at 11 µM.

B1 came in with an IC50 of at least 50 µM.

B2 showed an IC50 of 26 µM.

As to Ac-DLMPWNLKRIGLLR-NH2 [Compound 158], the IC50 is at least 50 µM.

Turning to B3, the IC50 was at least 50 µM.

Consider B4, for which the concentration for half-maximal inhibition (IC50) is at least 50 µM.

Pentanoyl-WNLV[hArg]IGLTR (also called n-BuC(O)-WNLV(homoR)IGLTR) [Compound 235] came in with an IC50 of at least 50 µM.

For the molecule WNLVRIGLLR (also: further groups not given here, Structure printed only as a drawing) [Compound 150], the IC50 was determined as 22 µM.

Ac-DLMPWNLVRIGLPR-NH2 [Compound 160]: the IC50 is at least 50 µM.

Take WNLVRIGLLR (also: further groups not given here, Structure printed only as a drawing) [Compound 133]: the IC50 is at least 50 µM.

For WNLVRIGLLR (also: further groups not given here, Structure printed only as a drawing) [Compound 134], the IC50 is at least 50 µM.

Turning to WNLVRIGLLR (also: further groups not given here, Structure printed only as a drawing) [Compound 147], the IC50 is 2.6 µM.

In turn, B5 had an IC50 of 31 µM.

WNLVRIGLLR (also: further groups not given here, Structure printed only as a drawing) [Compound 145] had an IC50 of 7.3 µM.

In turn, Ac-MDSFPGWNLVRIGLLR-NH2 [Compound 153] came in with an IC50 of 12 µM.

Turning to WNLVRIGLLR (also: further groups not given here, Structure printed only as a drawing) [Compound 143], the IC50 is at least 50 µM.

WNLVRIGLLR (also: further groups not given here, Structure printed only as a drawing) [Compound 135] showed an IC50 of at least 50 µM.

In turn, WNLVRIGLLR (also: further groups not given here, Structure printed only as a drawing) [Compound 130] had an IC50 of at least 50 µM.

In the case of WNLVRIGLLR (also: further groups not given here, Structure printed only as a drawing) [Compound 138], the IC50 stood at 48 µM.

As to WNLVRIGLLR (also: further groups not given here, Structure printed only as a drawing) [Compound 137], the 50% inhibitory concentration (IC50) is at least 50 µM.

WNLVRIGLLR (also: further groups not given here, Structure printed only as a drawing) [Compound 144]: the IC50 is 9.7 µM.

Molecule B6 yielded an IC50 of at least 50 µM.

Turning to WNLVRIGLLR (also: further groups not given here, Structure printed only as a drawing) [Compound 148], the IC50 is 19 µM.

In the case of WNLVRIGLLR (also: further groups not given here, Structure printed only as a drawing) [Compound 146], the IC50 came out at 11 µM.

In turn, Ac-SFAFPGWNLVRIGLLR-NH2 [Compound 154] yielded an IC50 of 11 µM.

As to Ac-DSYPGWNLVRIGLLR-NH2 [Compound 155], the IC50 turned out to be 11 µM.

Ac-ESYPGWNLVRIGLLR-NH2 [Compound 156] showed an IC50 of 11 µM.

For WNLVRIGLLR (also: further groups not given here, Structure printed only as a drawing) [Compound 139], the IC50 is at least 50 µM.

WNLVRIGLLR (also: further groups not given here, Structure printed only as a drawing) [Compound 136] displayed an IC50 of at least 50 µM.

Turning to WNLVRIGLLR (also: further groups not given here, Structure printed only as a drawing) [Compound 131], the IC50 is at least 50 µM.

In the case of WNLVRIGLLR (also: further groups not given here, Structure printed only as a drawing) [Compound 140], the IC50 is at least 50 µM.

Molecule WNLVRIGLLR (also: further groups not given here, Structure printed only as a drawing) [Compound 141] had an IC50 of at least 50 µM.

WNLVRIGLLR (also: further groups not given here, Structure printed only as a drawing) [Compound 151] returned an IC50 of 6.9 µM.

The molecule Pentanoyl-WNLVRIGLLR [Compound 152] showed an IC50 of 43 µM.

The molecule WNLVRIGLLR (also: further groups not given here, Structure printed only as a drawing) [Compound 142] registered a 50% inhibitory concentration (IC50) of at least 50 µM.
